The nanobody polyreactivity screen of Harvey et al. (2022)

Assay: yeast display, Sf9 membrane polyspecificity reagent, FACS + sequencing; frameworks hold sequencing errors
Summary of the method: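 After 36–48 hours of galactose induction, yeast (Saccharomyces cerevisiae BJ5465) displaying a synthetic nanobody library were stained at 4 °C for 1 hour with 10% biotinylated, detergent-solubilized Sf9 membrane reagent. Streptavidin microbeads enriched the stained cells before FACS sorting into low and high (top ~1%) gates on anti-HA and streptavidin fluorescence. Each clone's polyreactivity label reflects its gate of origin.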

| Sequence | polyreactivity (PSR sort gate) |
| --- | --- |
| QVQLVESGGGLVQAGGSLRLSCAASGFTFYPYAMGWYRQAPGKESEFVAAITWRGASTYYADSVKGRFTISRDNAKNTVYLQMNSLKPEDTAVYYCNARWRVPRYRYDYWGQGTQVTVSS | high polyreactivity |
| QVQLVESGGGLVQAGGSLRLSCAASGFTFYQNAMGWYRQAPGKEREFVAAISRRGGSTYYADSVKGRFTISRDNAKNTVYLQMNSLKPEDTAVYYCAADYKRKSDGDYWGQGTQVTVSS | high polyreactivity |
| QVQLVESGGGLVQAGGSLRLSCAASGFTFYRNAMGWSRQAPGKERELVAAISRGGRTYYADSVKGRFTISRDNAKNTVYLQMNSLKPEDTAVYYCAVGYSGYGSSMDYWGQGTQVTVSS | high polyreactivity |
| QVQLVESGGGLVQAGGSLRLSCAASGFTFYRNAMGWYRQAPGKERELVAAISGSGGRTYADSVKGRFTISRDIAKNTVYLQMNSLKPEDTAVYYCAASGYSSYRRYSTSNGYWGQGTQVTVSS | high polyreactivity |
| QVQLVESGGGLVQAGGSLRLSCAASGFTFYRNAMGWYRQAPGKERELVAAISWSGDSTYYADSVKGRFTISRDNAKNTVYLQMNSLKPEDTAVYYCDKERYFYYPWVTTYTSNYWGQGTQVTVSS | low polyreactivity |
| QVQLVESGGGLVQAGGSLRLSCAASGFTFYRNAMGWYRQAPGKERELVAAITWSGTSTYYADSVKGRFTISRDNAKNTVYLQMNSLKPEDTAVYYCNTVGYRGRSNSRFYYWGQGTQVTVSS | high polyreactivity |
| QVQLVESGGGLVQAGGSLRLSCAASGFTFYRNAMGWYRQAPGKERELVAGISKRGGSTYYADSVKGRFTISRDNAKNTVYLQMNSLKPEDTAVYYCARGGYPGSAEYDYWGQGTQVTVSS | high polyreactivity |
| QVQLVESGGGLVQAGGSLRLSCAASGFTFYRYAMGWYRQAPGKERELVAAISWSGASTYYADSVKGRFTISRDNAKNTVYLQMNSLKPEDTPVYYCNAYDTYLGGFDYWGQGTQVTVSS | high polyreactivity |
| QVQLVESGGGLVQAGGSLRLSCAASGFTFYRYAMGWYRQAPGKERELVAAITQSGGSTYYADSVKGRFTISRDNAKNTVYLQMNSLKPEDTAVYYCAARYRYDYGYGLGYSWGQGTQVTVSS | high polyreactivity |
| QVQLVESGGGLVQAGGSLRLSCAASGFTFYRYAMGWYRQAPGKERELVAAITSGGSTNYADSVKGRFTISRDNANNTVYLQMNSLKPEDTAVYYCNAGRYVRWWWYSPDDYWGQGTQVTVSS | high polyreactivity |
| QVQLVESGGGLVQAGGSLRLSCAASGFTFYRYAMGWYRQAPGKERELVATISASGGSTYYADSVKGRFTISRDNAKNTVYLQMISLKPEDTAVYYCAVRTIWRFRYDYWGQGTQVTVSS | high polyreactivity |
| QVQLVESGGGLVQAGGSLRLSCAASGFTFYRYAMGWYRQAPGKESELVAAISGSGGSTYYADSVKGRFTISRDNAKNTVYLQMNSLKPEDTAVYYCNTVWFYGAKYDYWGQGTQVTVSS | high polyreactivity |
| QVQLVESGGGLVQAGGSLRLSCAASGFTFYSNAMGWYRQAPGKERELVAAINWGGGSTYYADSVKGRFTISRDNAKNTVNLQMNSLKPEDTAVYYCAAEPIWEYWNGVSYAYDYWGQGTQVTVSS | low polyreactivity |
| QVQLVESGGGLVQAGGSLRLSCAASGFTFYSNAMGWYRQAPGKERELVARITKRGGSTYYADSVKGRFTISRDNAKNTVYLQMNSLKPEDTAVYYCAADDGSDAEYYYWGQGTQVTVSS | high polyreactivity |
| QVQLVESGGGLVQAGGSLRLSCAASGFTFYSYAMGWYRQAPGKERELVAAISRSGGSTRYADSVKGRFTISRENAKNTVYLQMNSLKPEDTAVYYCNAGKDRAYDYWGQGTQVTVSS | high polyreactivity |
| QVQLVESGGGLVQAGGSLRLSCAASGFTFYSYARGWYRQAPGKERELVAVINSSGGRTFYADSVKGRFTISRDNAKNTVYLQMNSLKPEDTAVYYCAARYAASRGPNQGKGNYWGQGTQVTVSS | high polyreactivity |
| QVQLVESGGGLVQAGGSLRLSCAASGFTFYSYVIGWYRQAPGKERELVAAITRGGSTYYADSVKGRFTISRDNAKNTVYLQMNSLKPEDTAVYYCAKRPSYGYNYWGQGTQVTVSS | low polyreactivity |
| QVQLVESGGGLVQAGGSLRLSCAASGFTFYTYAMGWYRQAPGKERELVAAINRSGGRTFYADSVKGRFTISRDNAKNTDYLQMNSLKPEDTAVYYCAADSRPYVGGMDYWGQGTQVTVSS | high polyreactivity |
| QVQLVESGGGLVQAGGSLRLSCAASGFTFYTYAMGWYRQAPGKERELVAGISTRGGRTYYADSVKGRFTISRDNAKNTVYLQMNSLKPEDTAVYYCNAVDKTGKYDYWGQGTQVTVSS | high polyreactivity |
| QVQLVESGGGLVQAGGSLRLSCAASGFTFYTYTMGWYRQAPGKERELVAVISRSGGSTYYADSVKGRFTISRDNAKNTVYLQMNSLKPEDTAVYYCNKVGIYGSRSRYDSWGQGTQVTVSS | high polyreactivity |
| QVQLVESGGGLVQAGGSLRLSCAASGFTFYVNAMGWYRQAPGKERELVAAISSSGTRTYYADSVKGRFTISRDKAKNTVYLQMNSLKPEDTAVYYCAARGQAYSGDRMYYWGQGTQVTVSS | high polyreactivity |

| Sequence | polyreactivity (PSR sort gate) |
| --- | --- |
| QVQLVESGGGLVQAGGSLRLSCAASGFTFYVNAMGWYRQAPGKERELVAAITYDGDSTYYADSVKGRFTISRDNAKNTVYLQMNSLKPEDTAVYYRNTVYGPDLDGTEYDYWGQGTQVTVSS | low polyreactivity |
| QVQLVESGGGLVQAGGSLRLSCAASGFTFYVYAMGWYRQAPGKERELVASISRGGSTYYADSVKGRFTISRDNAKNTVYLQINSLKPEDTAVYYCNRVPYVSSSKVRYSNGFDYWGQGTQVTVSS | low polyreactivity |
| QVQLVESGGGLVQAGGSLRLSCAASGFTFYYYAKGWYRQAPGKERELVAAINKKGGSTYADSVKGRFTISRDNAKNSVYLQLNSLKPEDTAVYYCYAVLTYTGVGYESWGQGTQVTVSS | high polyreactivity |
| QVQLVESGGGLVQAGGSLRLSCAASGFTFYYYAMGWYRQAPGKERELVAAISRSGGSTYYADSVKGRFTISRDNAKNTVYLQMNSLKPEDTAVDYCNKGSRWLRGLDSWGQGTQVTVSS | high polyreactivity |
| QVQLVESGGGLVQAGGSLRLSCAASGFTFYYYAMGWYRQAPGKERELVAAISWSSGRTYYADSVKGRFTISRDNAKNTVYLQMNSLKPEDTAVYYCAADGYAGSWWYDYWGQCTQVTVSS | high polyreactivity |
| QVQLVESGGGLVQAGGSLRLSCAASGFTFYYYAMGWYRQAPGKEREMVAAISGGGGSTYYADSVKGRFTISRDNAKNTVYLQMNSLKPEDTAVFYCAAEYRGYPEDEYWGQGTQVTVSS | high polyreactivity |
| QVQLVESGGGLVQAGGSLRLSCAASGFTFYYYAMGWYRQATGKERELVAAISSTGGSTYYADSVKGRFTISRDNAKNTVYLQMNSVKQEDSAVYYCNAAGYRYPGDYDYWGQGTQVTVSS | high polyreactivity |
| QVQLVESGGGLVQAGGSLRLSCAASGFTFYYYTMGWYRQAPGKEREFVAAITSSGGRTNYADSVKGRFTISRDNAKNIVYLQMNRLKPEDTAVYYCAATYIRYDHYRPRGGYWGQGTQVTVSS | high polyreactivity |
| QVQLVESGGGLVQAGGSLRLSCAASGFTFYYYTMGWYRQAPGKQRELVAAITWRGGSTNYADSVKGRFTISRDNAKNTVFLQMNSLKPEDTAVYYCAAVSYWFWPGMDYWGQGTQVTVSS | low polyreactivity |
| QVQLVESGGGLVQAGGSLRLSCAASGFTFYYYVMGWYRQAPGKERELVAAITNGGSTYYADSVKGRFTISRDNAKNTVYLQMISLKPEDTAVYYCATRQSHWSGEFDYWGQGTQVTVSS | high polyreactivity |
| QVQLVESGGGLVQAGGSLRLSCAASGFTIDAYAMGWDRQAPGKERELVAAISGSGGSTYYADSVKGRFTISRDNAKNTVYLQMNSLKPEDTAVYYCATDPGPYDYDYWGQGTQVTVSS | low polyreactivity |
| QVQLVESGGGLVQAGGSLRLSCAASGFTIDDNAMGWSRQPPGKERELVAAISWSGGSTYYADSVKGRFTISRDNAKNTVYLQMNSLKPEDTAVYYCAIDVSQPKFDYWGQGTQVTVSS | low polyreactivity |
| QVQLVESGGGLVQAGGSLRLSCAASGFTIDGYAMGWYRQAPGKERELVAAIRRGGRTKYADSVKGRFTISRDNAKNTVYLQLNSLKPEDTAVYYCNAVTRGYYHEMEYWGQGTQVTVSS | high polyreactivity |
| QVQLVESGGGLVQAGGSLRLSCAASGFTIDYYTMGWYRQAPGKERELVAAISWSGGSTYYADSVKGRFTISRDNAKNTVYLQMNSLKPEDTAVYYCAAAWSYRYELYYWGQGTQVTVSS | low polyreactivity |
| QVQLVESGGGLVQAGGSLRLSCAASGFTIERNAMGWYRQAPGKERELVATISQSGTNTYYADSVKGRFTISRDNAKNTVYLQMNSLKPEETAVYYCNARDIFYRYDYWGQGTLVTVSS | low polyreactivity |
| QVQLVESGGGLVQAGGSLRLSCAASGFTIGNYAMGWYRQAPGKERELVAAISSSGTSTYYADSVKGRFTISRDIAKNTVYLQMNSLKPEDTAVYYCAAEYIINYTIFEYWGQGTQLTVSS | high polyreactivity |
| QVQLVESGGGLVQAGGSLRLSCAASGFTIGPNAMGWYRQPPGKERELVAAISQSGGSTYADSVKGRFTISRDNAKNTVYLQMNSLKPEDTAVYYCAAQRARVNRYGGKFGYWGQGTQVTVSS | high polyreactivity |
| QVQLVESGGGLVQAGGSLRLSCAASGFTIGYNVMGWYREAAGKERELVATISWNGARTYYADSVKGRFTISRDNAKNTVYLQMNSLKPEDTAVYYCAARRYYRGEYDYWGQGTQVTVSS | low polyreactivity |
| QVQLVESGGGLVQAGGSLRLSCAASGFTIKWYTMGWYRPAPGKERELVAGISRRGGSTYYADSVKGRFTISRDNAKNTVYLEMNSLKPEDTAVYYCNVYSRTHYQTYTDDYWGQCTQVTVSS | high polyreactivity |
| QVQLVESGGGLVQAGGSLRLSCAASGFTINFYAMGWYRKAPGKERELVAAITASGGGSTYYADSVKGRFTISRDNAKNTVYLQMNSLKPEDTAVYYCNADYPGSFYTYDYWGQGTQVTVSS | low polyreactivity |
